The data set deals with the molecule itself. Kind of data set: crystal structure.

B1: full length HtpG from M. tuberculosis (HtpGMtb) (enzyme)
chain: MNAHVEQLEFQAEARQLLDLMVHSVYSNKDAFLRELISNASDALDKLRIEALRNKDLEVDTSDLHIEIDADKAARTLTVRDNGIGMAREEVVDLIGTLAKSGTAELRAQLREAKNAAASEELIGQFGIGFYSSFMVADKVQLLTRKAGESAATRWESSGEGTYTIESVEDAPQGTSVTLHLKPEDAEDDLHDYTSEWKIRNLVKKYSDFIAWPIRMDVERRTPASQEEGGEGGEETVTIETETLNSMKALWARPKEEVSEQEYKEFYKHVAHAWDDPLEIIAMKAEGTFEYQALLFIPSHAPFDLFDRDAHVGIQLYVKRVFIMGDCDQLMPEYLRFVKGVVDAQDMSLNVSREILQQDRQIKAIRRRLTKKVLSTIKDVQSSRPEDYRTFWTQFGRVLKEGLLSDIDNRETLLGISSFVSTYSEEEPTTLAEYVERMKDGQQQIFYATGETRQQLLKSPHLEAFKAKGYEVLLLTDPVDEVWVGMVPEFDGKPLQSVAKGEVDLSSEEDTSEAEREERQKEFADLLTWLQETLSDHVKEVRLSTRLTESPACLITDAFGMTPALARIYRASGQEVPVGKRILELNPSHPLVTGLRQAHQDRADDAEKSLAETAELLYGTALLAEGGALEDPARFAELLAERLARTL
As for B1, the binding result is “binds”.

The values are drawn from publication doi:10.64898/2025.12.11.693645 (bioRxiv, 2025).
